Measurements from patent publication US20230414780A1 (VECT HORUS, published 2023).

Key:
[1] = biological target: T1, murine TfR expressed by murine neuroblastoma Neuro-2a cells (mouse, UniProt Q62351 1-763); assay: competition with C5-Alexa680 (100 nM) on living Neuro-2a cells, 3 hrs at 37 C, flow cytometry; Ki/app, mean ± SD
T1 construct: whole, on cells; also called mTfR (N2a cells)
Experimental: The binding of VHH-Oligo and VHH-hFc-Oligo conjugates to mTfR was evaluated using a competition assay on living cells expressing the receptor of interest, namely murine neuroblastoma Neuro-2a cells (N2a). N2a cells were grown in Dulbecco's Modified Eagle Medium (DMEM) GlutaMAX supplemented with 10% v/v FBS in 5% CO₂ at 37° C. Cells were seeded two days before experiments in 96-well plates at a density of 50.000 cells/well. […] Resuspended cells were transferred in a 96-deepwell plate (V-bottom) containing 1% fetal bovine serum (FBS)/0.02% sodium azide in phosphate-buffered saline (PBS) and then centrifuged for 5 min at 2000 rpm at 4° C. After removing the supernatant, 5 mM EDTA in D-PBS and 4% paraformaldehyde (PFA) (v/v 1:1) were added into wells to fix cells for 15 min at room temperature. PFA was removed by centrifugation (5 min, 3000 rpm, 4° C.) and cells were resuspended with 5 mM EDTA in D-PBS. Then the cellular A680-associated fluorescence signal was quantified using an Attune™ NxT flow cytometer (Thermo Fisher Scientific) equipped with Attune™ NxT v3.1.2. Experimental data (experimental triplicates) were fitted with GraphPad Prism® software using a nonlinear fit to determine the apparent Ki inhibition constants.

[2] = biological target: T2, rhesus monkey transferrin receptor (rhTfR) fused to EGFP, on CHO cells (rhesus monkey); assay: apparent Kd, flow cytometry, CHO cells
T2 construct: whole, on cells; also called rhesus monkey TfR
In short: (§1)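 CHO cells expressing TfR-EGFP fusions, blocked in PBS/BSA 2%, then incubated with increasing VHH concentrations for 1 hr at 4° C. Bound VHH detected via anti-6His antibody and Alexa647 secondary, cells PFA-fixed, read by flow cytometry. Apparent Kd from nonlinear fit.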

[3] = biological target: T3, mouse transferrin receptor (mTfR) fused to EGFP, on CHO cells (mouse, UniProt Q62351 1-763); assay: apparent Kd, flow cytometry, CHO cells
T3 construct: whole, on cells; also called mouse TfR; CHO-mTfR-EGFP; not shown: EGFP
In short: as §1

[4] = biological target: T4, human transferrin receptor (hTfR) fused to EGFP, on CHO cells (human, UniProt P02786 1-760); assay: apparent Kd, flow cytometry, CHO cells
T4 construct: whole, on cells; also called human TfR; CHO-hTfR-EGFP; not shown: EGFP from pEGFP-C1 vector, fused to the N-terminal (intracellular) end of hTfR
In short: as §1

[5] = biological target: T4, human transferrin receptor (hTfR) fused …; assay: competition flow cytometry on CHO-hTfR-EGFP cells, 4 C; VHH competitor in dilution series, phage-C5 tracer at EC80, anti-M13-A647
Experimental: FIGS. 17A-17D: Competition assays between VHHs and phage-VHHs. CHO-hTfR-EGFP cells were incubated 1 hr at 4° C. with VHHs (competitors) at increasing concentrations. Phage-VHHs (tracers) were then added at EC80 and incubated for 1 more hr. Phage-VHHs were detected with an anti-M13-A647 antibody (1/200). Fluorescence levels were assessed using flow cytometry. The ratio of fluorescence intensity for each point was normalized with the corresponding EGFP signal (receptor expression) and gave rise to the arbitrary unit. Data are presented as mean±SEM of independent experiments.
To evaluate whether selected VHHs compete one with the other for binding to the TfR receptor, competition assays using flow cytometry experiments were performed. All experiments were performed in 96 well plates using 2×10⁵ cells/well, at 4° C. with shaking. CHO cell line expressing the hTfR fused to EGFP was saturated with PBS/BSA 2% solution during 30 min to avoid nonspecific binding, followed by incubation with VHH (competitors) at increasing concentrations for 1 hr. Then, phage-VHHs (tracers) at EC80 were added and incubated 1 hr more. To detect the phage-VHHs, cells were washed twice with PBS/BSA 2% and incubated for 1 hr with an Alexa647-conjugated anti-M13 antibody. […] Fluorescence levels were assessed using an Attune NxT flow cytometer (Thermo Fisher Scientific). […]

[6] = biological target: T4, human transferrin receptor (hTfR) fused …; assay: flow cytometry on CHO-hTfR-EGFP cells, 1 hr at 4 C, anti-6His + Alexa647 anti-mouse; ratio to background fluorescence

T4 sequence (P02786 whole entry, the tested form may be a part): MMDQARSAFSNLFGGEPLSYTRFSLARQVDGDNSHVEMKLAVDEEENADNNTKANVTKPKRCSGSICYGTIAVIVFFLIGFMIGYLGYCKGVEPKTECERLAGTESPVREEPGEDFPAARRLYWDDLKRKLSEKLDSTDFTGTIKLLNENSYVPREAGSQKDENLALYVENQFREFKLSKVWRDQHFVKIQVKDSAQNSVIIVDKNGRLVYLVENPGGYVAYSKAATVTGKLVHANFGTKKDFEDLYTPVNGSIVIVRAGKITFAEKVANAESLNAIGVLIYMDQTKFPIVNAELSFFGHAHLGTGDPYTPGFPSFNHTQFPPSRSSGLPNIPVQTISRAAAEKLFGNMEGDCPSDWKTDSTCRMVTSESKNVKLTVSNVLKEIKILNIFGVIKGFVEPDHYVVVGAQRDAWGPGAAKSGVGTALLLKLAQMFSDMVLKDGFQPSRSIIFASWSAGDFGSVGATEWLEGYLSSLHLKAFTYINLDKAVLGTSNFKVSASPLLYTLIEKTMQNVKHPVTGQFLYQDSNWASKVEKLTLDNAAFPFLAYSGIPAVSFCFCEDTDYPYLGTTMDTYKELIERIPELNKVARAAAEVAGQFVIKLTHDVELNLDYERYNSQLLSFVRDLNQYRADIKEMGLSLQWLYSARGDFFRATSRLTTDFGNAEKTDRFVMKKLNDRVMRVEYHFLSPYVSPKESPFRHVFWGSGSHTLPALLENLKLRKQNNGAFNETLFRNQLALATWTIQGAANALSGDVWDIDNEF
T3 sequence (Q62351 whole entry, the tested form may be a part): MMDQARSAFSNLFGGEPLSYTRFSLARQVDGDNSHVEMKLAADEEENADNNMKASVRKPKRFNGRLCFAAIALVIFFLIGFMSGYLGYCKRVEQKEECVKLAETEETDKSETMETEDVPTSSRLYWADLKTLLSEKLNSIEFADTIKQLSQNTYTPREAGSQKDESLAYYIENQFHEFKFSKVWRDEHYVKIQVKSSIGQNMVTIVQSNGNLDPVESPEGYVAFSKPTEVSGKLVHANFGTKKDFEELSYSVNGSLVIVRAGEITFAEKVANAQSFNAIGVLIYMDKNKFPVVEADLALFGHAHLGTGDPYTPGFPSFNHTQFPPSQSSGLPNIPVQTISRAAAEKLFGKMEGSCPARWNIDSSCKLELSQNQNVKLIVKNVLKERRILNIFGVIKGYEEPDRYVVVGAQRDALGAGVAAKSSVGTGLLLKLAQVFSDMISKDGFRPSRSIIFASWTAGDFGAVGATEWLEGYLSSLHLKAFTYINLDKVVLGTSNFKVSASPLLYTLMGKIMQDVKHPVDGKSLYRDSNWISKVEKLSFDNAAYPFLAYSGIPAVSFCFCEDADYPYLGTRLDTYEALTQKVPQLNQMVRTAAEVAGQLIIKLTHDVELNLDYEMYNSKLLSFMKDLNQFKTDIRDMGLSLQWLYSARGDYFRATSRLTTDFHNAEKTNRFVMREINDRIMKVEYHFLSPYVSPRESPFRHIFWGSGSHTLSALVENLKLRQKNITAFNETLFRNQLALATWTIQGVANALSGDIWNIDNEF
T1 sequence (Q62351 whole entry): as the sequence (Q62351 whole entry, the tested form may be a part) above

Ki [1]: 319 nM | Kd [2]: 4.9 nM | Kd [3]: 50 nM | Kd [4]: 2.7 nM | IC50 (read off the curve) [5]: ~50 nM | EC50 (read off the curve) [6]: ~5 nM
B1: VHH A (C5) (VHH)
VHH: EVQLVESGGGVVQPGGSLKLSCVASGTDFSINFIRWYRQAPGKQREFVAGFTATGNTNYADSMKGRFTISRDNTKNAVYLQIDSLKPEDTAVYYCYMLDKWGQGTQVTVSS
notes: form with the C-terminal myc-His6 tag (x = 1), since the VHHs were detected with anti-6His or anti-cMyc; the same holds for m12 to m126
